“Also recorded” adds a separate entry of the source.
Key:
SUMO-tagged MDIS1LRR = experiment: Gel filtration assay with SUMO-tagged MDIS1^LRR with or without MIK1^LRR; format: binding; conditions: in the presence or absence of MIK1LRR, peer review file
Source text: We thank the reviewer for his/her high evaluation of our work and constructive […]
We have conducted more experiments including functional analysis of […]
bind to either MIK1 or MIK2 in their binding experiments. Considering the importance of genetic data published by other groups, I recommend that the authors conduct more binding experiments using MDIS1, MDIS2, and mixtures thereof with […]
interaction of AtLURE1.2 with the extracellular LRR domain of MIK1 (MIK1LRR) or MIK2 (MIK2LRR). All the proteins were purified from insect cells. As shown in […]
AtLURE1.2 in the assays, because the AtLURE1.2 and MIK1LRR or MIK2LRR were well separated in gel filtration. This is strikingly different from PRK6LRR with AtLURE1.2, which co-migrated when tested using the same assay. To further test interaction of AtLURE1.2 with MIK1LRR or MIK2LRR, we used ITC to quantify the binding affinity between the insect cell-generated AtLURE1.2 and MIK1LRR or […]
binding of AtLURE1.2 to MIK1LRR or MIK2LRR (Supplementary Fig. 6). In contrast to […]
into the MIK1LRR- or MIK2LRR-containing cell (Supplementary Fig. 6).
We then tested whether LURE1.2 interacts with MIK1LRR or MIK2LRR in the presence of the extracellular LRR domain of MDIS1 (MDIS1LRR). We therefore tried to purify MDIS1LRR from insect cells. However, although several constructs had been tested, expression of MDIS1LRR protein alone was undetectable. […]

[1] = tested on: prk6 pollen tubes transformed with PRK6 N239A; experiment: Gelatin-beads assay, prk6 pollen tubes transformed with N239A PRK6; format: cell-based, Arabidopsis; conditions: beads with 250 nM wild-type AtLURE1.2; 10–23 pollen tubes per assay, three assays
Procedure: (§1) Attraction activities of mutant AtLURE1.2 peptides were examined for semi-in-vivo pollen tubes growing through cut, pollinated pistils by gelatin-beads assay and wavy assay, [20]. For the gelatin-beads assay, pollen tubes were grown on solid pollen germination medium poured into a mold made with 1-mm thick silicone rubber and cover glasses. After hand-pollination, the topside cover glass was removed and the medium was covered with hydrated silicone oil (KF-96–100CS; Shin-Etsu). Attraction of pollen tubes toward the peptide was evaluated using AtLURE1 peptide containing gelatine beads under an inverted microscope (IX71, Olympus) equipped with a micro-manipulator (Narishige). For the AtLURE1-responsive wavy assay, the purified AtLURE1.2 peptide was added to solid pollen germination medium, which was melted at 70 °C and then cooled to a certain degree. The mixture was mixed by vortexing and poured into the mold. Pollen tubes of each genotype were grown through cut styles, as mentioned above. Each peptide (25 μM in 10 mM Bis-Tris (pH 6.0) and 100 mM NaCl) was diluted to 250 nM by cultivation medium in both assays. To examine reactivity of PRK6 mutants to AtLURE1.2, constructs for PRK6 mutants, D234A, N239A, and ΔN239I240, were generated by site-directed mutagenesis from a wild-type PRK6 vector, pPZP221-pPRK6::PRK6-mRuby2 (ref. [20]). […]

[2] = tested on: prk6 pollen tubes transformed with PRK6 ΔN239I240; experiment: Gelatin-beads assay, prk6 pollen tubes transformed with ΔN239I240 PRK6; format: cell-based, Arabidopsis; conditions: beads with 250 nM wild-type AtLURE1.2; 10–23 pollen tubes per assay, three assays
Procedure: as §1

[3] = tested on: prk6 pollen tubes transformed with PRK6 of wild-type; experiment: Wavy assay, prk6 pollen tubes transformed with wild-type PRK6; format: cell-based, Arabidopsis; conditions: 250 nM wild-type AtLURE1.2 in medium
Procedure: as §1, with “assays.” for “assays. To examine reactivity of PRK6 mutants to AtLURE1.2, constructs for PRK6 mutants, D234A, N239A, and ΔN239I240, were generated by site-directed mutagenesis from a wild-type PRK6 vector, pPZP221-pPRK6::PRK6-mRuby2 (ref. [20]).”
(§2) pollen tubes. Fluorescence is from mRuby2 fused to the C-terminal of PRK6 receptors, showing that all of mutant PRK6 receptors localize normally to the plasma membrane of the pollen tube tip. […]

[4] = tested on: prk6 pollen tubes transformed with PRK6 N239A; experiment: Wavy assay, prk6 pollen tubes transformed with N239A PRK6; format: cell-based, Arabidopsis; conditions: 250 nM wild-type AtLURE1.2 in medium
Procedure: as §1, with “assays.” for “assays. To examine reactivity of PRK6 mutants to AtLURE1.2, constructs for PRK6 mutants, D234A, N239A, and ΔN239I240, were generated by site-directed mutagenesis from a wild-type PRK6 vector, pPZP221-pPRK6::PRK6-mRuby2 (ref. [20]).”
as §2

B1: AtLURE1.2: mature form of AtLURE1.2 (residues 20–90), defensin-like cysteine-rich peptide expressed in insect cells (protein)
chain: TLINGSSDEERTYSFSPTTSPFDPRSLNQELKIGRIGYCFDCARACMRRGKYIRTCSFERKLCRCSISDIK
modifications: left off: His6, N-terminal, cleaved | SUMO, N-terminal, cleaved
notes: mature form of AtLURE1.2 (residues 20–90), defensin-like cysteine-rich peptide expressed in insect cells
interaction in gel filtration (SUMO-tagged MDIS1LRR): no interaction | interaction in gel filtration (SUMO-tagged MDIS1LRR; listed as LURE1.2): well separated from the two proteins | pollen tube attraction / reactivity [1]: comparable reactivity to the wild-type PRK6 | pollen tube attraction [2]: significantly lower than those in wild-type and N239A PRK6 pollen tubes; also recorded: significantly reduced | wavy and branched pollen tube behavior [3]: severe wavy and branched behavior | wavy and branched pollen tube behavior [4]: severe wavy and branched behavior; also recorded: comparable reactivity to the wild-type PRK6

Source: article PMC5673899, “Structural basis for receptor recognition of pollen tube attraction peptides” (Nature Communications, 2017)
